According to PMC3293846, “Optimization of Time-Course Experiments for Kinetic Model Discrimination” (PLoS ONE, 2012):

Substrate: CC(=O)C=O
Assay: purified protein
Format: biochemical, Saccharomyces cerevisiae
Settings: two-substrate sequential model (model 2), co-substrate glutathione, 70 mM potassium phosphate pH 6.5, 30°C, no glyoxalase II

B1: yeast glyoxalase I (EC 4.4.1.5); glyoxalase I from Saccharomyces cerevisiae (Sigma) (Saccharomyces cerevisiae S288C) (protein)
chain: MSTDSTRYPIQIEKASNDPTLLLNHTCLRVKDPARTVKFYTEHFGMKLLSRKDFEEAKFSLYFLSFPKDDIPKNKNGEPDVFSAHGVLELTHNWGTEKNPDYKINNGNEEPHRGFGHICFSVSDINKTCEELESQGVKFKKRLSEGRQKDIAFALGPDGYWIELITYSREGQEYPKGSVGNKFNHTMIRIKNPTRSLEFYQNVLGMKLLRTSEHESAKFTLYFLGYGVPKTDSVFSCESVLELTHNWGTENDPNFHYHNGNSEPQGYGHICISCDDAGALCKEIEVKYGDKIQWSPKFNQGRMKNIAFLKDPDGYSIEVVPHGLIA
notes: no tags or mass told
- Km: 1200 ± 190 µM
- kcat: (1.7±0.38)×10^5 min^−1
